The record followed here is the supplement of paper PMC10567573.

The labels stand for the following.
B1: HDAC6 (parent)
chain: DLMETTQYMNEGELRVLADTYDSV
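Also: lentivirally expressed fusions sorted by FACS into six bins by GFP to DsRed ratio, PSI derived from sequencing read proportions per bin multiplied by bin number.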

The variants in the data set derive from B1. As to the kind of experiment: protein stability index of a GFP-peptide fusion (GPS, HEK-293T) (PSI 1-6); higher = more stable. The settings on record: c terminus: a fixed tail appended.
Consider DLMETTQYMNEGELRVLADTYDIV, for which the protein stability index is 1.86.
In the case of DLMETTQYMNEGELRVLADTYDVV, the protein stability index came out at 1.63.
Regarding DLMETTQYMNEGELRVLADTYDKV, the protein stability index was 2.03.
The figure for DLMETTQYMNEGELRVLADTYDYV is 1.58; for DLMETTQYMNEGELRVLADTYDPV it is 1.46; for DLMETTQYMNYGELRVLADTYDSV it is 2.43.
As for DLMETTQYMNKGELRVLADTYDSV, the protein stability index turned out to be 2.89.
On to DLMETTQYMNFGELRVLADTYDSV, for which the protein stability index came out at 2.
Take DLMETTQYMNLGELRVLADTYDSV: the protein stability index was 2.6.
Consider DLMETTQYMNQGELRVLADTYDSV, for which the protein stability index amounted to 2.6.
With DLMETTQYMNEGELRVLAITYDSV, the protein stability index amounted to 2.55.
Take DLMETTQYMNEGELRVLAKTYDSV: the protein stability index worked out at 2.52.
As for DLMETTQYMNEGELRVLAFTYDSV, the protein stability index is 2.78.
For DLMETTQYMNEGELRVLALTYDSV, the protein stability index came to 1.64.
For DLMETTQYMNEGLLRVLADTYDSV, the protein stability index worked out at 2.63.
DLMETTQYMNEGHLRVLADTYDSV: the protein stability index was found to be 3.2.
As to DLMETTQYMNEGCLRVLADTYDSV, the protein stability index turned out to be 3.37.
DLMETTQYMNEGTLRVLADTYDSV: the protein stability index is 3.84.
Consider DLMETTQYMNEGELRVLADTYDSH, for which the protein stability index was found to be 2.78.
DLMETTQYMNEGELRVLADTYDSI: the protein stability index came to 2.34.
On to DLMETTQYMNEGELRVLADTYDSG, for which the protein stability index is 2.1.
DLMETTQYMNEGELRVLADTYDSS: the protein stability index came out at 1.56.
As for DLMETTQYMNEGELRVLADTYDSK, the protein stability index was found to be 1.77.
Regarding DLMETTQYMNEGELRVLADTYDSC, the protein stability index was determined as 1.42.
The figure for DLMETTQYMNEGELRVLADTYDSD is 2.41; for DLMETTQYMNEDELRVLADTYDSV it is 4.79; for DLMETTQYMNEHELRVLADTYDSV it is 3.46.
As for DLMETTQYMNEFELRVLADTYDSV, the protein stability index is 2.85.
For the variant DLMETTQYMNETELRVLADTYDSV, the protein stability index amounted to 3.49.
Next, DLMETTQYMNEAELRVLADTYDSV: 2.33; DLMETTQYMNEKELRVLADTYDSV: 3.87.
Next, DLMETTQYMNEGELRVGADTYDSV: 3.86.
On to DLMETTQYMNEGELRVRADTYDSV, for which the protein stability index amounted to 2.97.
On to DLMETTQYMNEGELRVMADTYDSV, for which the protein stability index was determined as 2.01.
Regarding DLMETTQYMNEGELRVSADTYDSV, the protein stability index stood at 4.34.
On to MLMETTQYMNEGELRVLADTYDSV, for which the protein stability index was found to be 1.54.
Next, PLMETTQYMNEGELRVLADTYDSV: 4.29; QLMETTQYMNEGELRVLADTYDSV: 2.25; ELMETTQYMNEGELRVLADTYDSV: 2.22.
Regarding DLMETTQYMNEGELRELADTYDSV, the protein stability index turned out to be 4.75.
With DLMETTQYMNEGELRDLADTYDSV, the protein stability index was determined as 4.54.
Turning to DLMETTQYMNEGELRGLADTYDSV, the protein stability index was found to be 4.03.
On to DLKETTQYMNEGELRVLADTYDSV, for which the protein stability index stood at 4.13.
With DLYETTQYMNEGELRVLADTYDSV, the protein stability index turned out to be 2.74.
With DLGETTQYMNEGELRVLADTYDSV, the protein stability index was 3.84.
As to DLSETTQYMNEGELRVLADTYDSV, the protein stability index stood at 3.48.
With DLLETTQYMNEGELRVLADTYDSV, the protein stability index was 1.91.
For the variant DLMETTQYMNEGEYRVLADTYDSV, the protein stability index came out at 1.87.
In the case of DLMETTQYMNEGEDRVLADTYDSV, the protein stability index was 2.32.
On to DLMETTQYMNEGEHRVLADTYDSV, for which the protein stability index was 2.29.
As for DLMETTQYMNEGEVRVLADTYDSV, the protein stability index worked out at 2.83.
As to DLMETTQYMNEGESRVLADTYDSV, the protein stability index amounted to 2.21.
For the variant DLMETTQYVNEGELRVLADTYDSV, the protein stability index turned out to be 3.6.
The figure for DLMETTQYHNEGELRVLADTYDSV is 4.55; for DLMETTQCMNEGELRVLADTYDSV it is 4.07.
In the case of DLMETTQWMNEGELRVLADTYDSV, the protein stability index came out at 1.89.
On to DLMETTLYMNEGELRVLADTYDSV, for which the protein stability index was found to be 2.12.
For the variant DLMETTVYMNEGELRVLADTYDSV, the protein stability index came to 1.67.
Take DLMETTEYMNEGELRVLADTYDSV: the protein stability index came to 1.97.
Take DLMETTQYMNEGELRVLKDTYDSV: the protein stability index came to 2.18.
In the case of DLMETTQYMNEGELRVLQDTYDSV, the protein stability index stood at 1.62.
Take DLMETTQYMNEGELRVLGDTYDSV: the protein stability index amounted to 2.86.
On to DLMETTQYMNEGELRVLSDTYDSV, for which the protein stability index was 2.09.
As for DLMETTQYMNEGELRVLRDTYDSV, the protein stability index came out at 2.12.
In the case of DLMETTQYMNEGELQVLADTYDSV, the protein stability index is 1.76.
Consider DLMETTQYMNEGELKVLADTYDSV, for which the protein stability index came to 2.27.
As to DLMETTQYMNEGELEVLADTYDSV, the protein stability index came out at 2.01.
DLMETTQYMNEGELHVLADTYDSV: the protein stability index is 2.03.
In the case of DLMETTQYMNEGELGVLADTYDSV, the protein stability index is 3.24.
The figure for DLMETTQYMNEGELRVLADTCDSV is 2.2; for DGMETTQYMNEGELRVLADTYDSV it is 3.22; for DLMETTQYMNEGELRVLADRYDSV it is 3.07.
The figure for DLMETTQYMNEGELRVLADFYDSV is 2.27; for DLMETTQYMNEGELRVLADAYDSV it is 2.49.
As for DLMETTQYMSEGELRVLADTYDSV, the protein stability index was determined as 1.74.
As to DLMETTQYMAEGELRVLADTYDSV, the protein stability index worked out at 1.98.
As for DLMETTQYMREGELRVLADTYDSV, the protein stability index is 1.75.
Regarding DLMETVQYMNEGELRVLADTYDSV, the protein stability index was determined as 1.46.
Regarding DLMETGQYMNEGELRVLADTYDSV, the protein stability index is 3.57.
Consider DLMETEQYMNEGELRVLADTYDSV, for which the protein stability index amounted to 2.88.
With DLMRTTQYMNEGELRVLADTYDSV, the protein stability index worked out at 3.36.
The figure for DLMTTTQYMNEGELRVLADTYDSV is 3; for DLMQTTQYMNEGELRVLADTYDSV it is 3.94.
Next, DLMITTQYMNEGELRVLADTYDSV: 1.11; DLMSTTQYMNEGELRVLADTYDSV: 1.78; DLMEITQYMNEGELRVLADTYDSV: 2.67.
The figure for DLMERTQYMNEGELRVLADTYDSV is 2.56; for DLMEKTQYMNEGELRVLADTYDSV it is 2.9; for DLMECTQYMNEGELRVLADTYDSV it is 2.38.
Regarding DLMEETQYMNEGELRVLADTYDSV, the protein stability index amounted to 2.54.
Turning to DLMETTQYMNEGELRVLADTYSSV, the protein stability index is 1.55.
Next, DLMETTQYMNEGELRVLADTYKSV: 1.75; DLMETTQYMNEGELRVLADTYTSV: 1.65; DLMETTQYMNEGELRVLADTYASV: 1.27.
